According to US20100311844A1, “Spontaneously Forming Ellipsoidal Phospholipid Unilamellar Vesicles” (priority 2006, published 2010):
Entries after “also recorded” stand apart in the source; their conditions may differ.

How the values were obtained:
[1] = SANS of non-doped, H1-, H2- and SapC-doped DOPS/DPPC/DHPC mixtures (modified Guinier plot, ellipsoidal shell model fit); assay type: physicochemical; conditions: for effect of peptide on bilayer stability: SANS result; for effect of peptide on ULV size and size distribution / effect of peptide on membrane thickness: peptide 62.5 μM
Procedure: For preparation of liposomes containing protein, SapC was over expressed in E. coli cells using the IPTG-inducing pET system, and His-tag proteins were eluted from nickel columns. After dialysis, the proteins were further purified by HPLC chromatography as follows: The C4 reverse phase column was equilibrated with 0.1% trifluoroacetic acid (TFA) for 10 minutes, then the proteins were eluted in a linear (0-100%) gradient of 0.1% TFA in acetonitrile over 60 minutes. The major protein peak was collected and lyophilized, while protein concentrations were determined as described previously. H1 (YCEVCEFLVKEVTKLID) and H2 (EKEILDAF DKMCSKLPK) peptides were synthesized by SynPep Corp. (California, USA) and dissolved in D2O at a concentration of 1.5 mg/mL. The 0.1 wt. % lipid solution with [DOPS]/[DPPC]=10 and ([DPPC]+[DOPS]/DHPC=4 was then added to the two peptide solutions (1.5 mg/mL) at a volume ratio of 12:1, and the SapC solution with a volume ratio of 1:1, yielding a final peptide (or SapC) concentration of 62.5 μM, (molar ratio of [lipid]/[peptide]=22/1) a concentration higher than the SapC required to induce membrane destabilization. A sample containing only 6.25 μM of SapC ([lipid]/[SapC]=220/1) was also prepared for comparison purposes.
To determine the structure and stability of the resulting liposomes, the homogenized 10 wt. % solutions are first progressively diluted into 5, 2, 1, 0.5 and 0.1 wt. % samples. Prior to DLS measurements, the 0.1 wt. % stock lipid samples are diluted 5, 50 and 200 fold, and are analyzed using an N4^+ particle sizer (Coulter, Miami, Fla.). Using this method, it was determined that diluting the system had no effect on the size of the particles. For SANS experiments, the same sample preparation protocol was applied to the [DOPS]/[DPPC]=10 sample except that D2O (99.9%, Chalk River Laboratories, Chalk River, ON), instead of H2O, was used to obtain a sample with a total lipid concentration of 0.5 wt. %. The 0.5 wt. % sample was then further diluted into 0.1 and 0.05 wt. % mixtures using an acidic buffer composed of equal-volumes of 0.1N sodium acetate (NaAc) and 0.1N acetic acid (HAc).
SANS experiments were carried out on the 30 m NG7 SANS instrument located at the National Institute of Standards and Technology (NIST) Center for Neutron Research (NCNR, Gaithersburg, Md., USA). 8.09 Å wavelength (λ) neutrons, a neutron focusing lens and a long sample-to-detector distance (SDD=15.3 m) were used to reach the lowest scattering vectors [q=4π/λ·sin(θ/2), where θ is the scattering angle]. Two other SDD (5 and 1 m) were also used, covering a combined q range from 0.002 to 0.35 Å^−1 for all three SDD. Raw 2-D data were corrected for detector sensitivity, background, empty cell scattering and sample transmission. The corrected data were then circularly averaged, around the beam center, yielding the customary 1-D data. […] The incoherent plateau was determined by averaging the intensity of 10-20 high q data points and then subtracted from the reduced data.
For q>0.06 Å^−1 the differences in intensity among the three data sets (FIG. 2) are indistinguishable. Analysis of a modified Guinier plot^30 (also known as Kratky-Porod plot) applied to all three samples, where ln(I·q^2) has a linear relationship with q^2 in the range between 5×10^−3 and 2.5×10^−2 Å^−2, indicate the existence of a lamellar structure. […] The lines represent the best-fits to the data. The bilayer thickness is then derived from the square root of the slope multiplying by √{square root over (12)}.
The model for a unilamellar tri-axial ellipsoidal vesicle is depicted as an ellipsoidal shell (FIG. 4) with different core lengths along the three prime axes, acore, bcore and ccore (acore≦bcore≦ccore). The shell lengths along the axes, ashell, bshell and cshell, are defined as (acore+l), (bcore+l) and (ccore+l), respectively, where l is the bilayer thickness. […]

[2] = target: T1, SapC induced membrane fusion (Homo sapiens, UniProt P07602); conditions: reported by Wang et al.; cited from earlier work
T1 sequence (P07602 311-390 limits assumed): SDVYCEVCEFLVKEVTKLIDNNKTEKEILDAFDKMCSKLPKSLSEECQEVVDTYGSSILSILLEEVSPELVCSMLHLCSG

[3] = AFM, supported membranes; cited from earlier work

In the case of “EKEILDAFDKMCSKLPK [H2, helical domain peptide of SapC, synthesized by SynPep Corp]”, the “effect of peptide on bilayer stability” value [1] is reported as “do not destabilize the bilayer morphology”, the “effect of peptide on ULV size and size distribution” value [1] is reported as “shifts the equilibrium between the two ULV aggregates present” and the “effect of peptide on membrane thickness” value [1] is reported as “small decreases to the membrane thickness”. The “inhibition of SapC induced membrane fusion” value [2] was “can inhibit SapC induced membrane fusion” and the “effect on destabilization and restructuring of lipid membranes” value (“effect … of lipid membranes” below) [3] was “neither H1 nor H2 alone have significant influence on membrane structure”.

In the case of “YCEVCEFLVKEVTKLID [H1, helical domain peptide of SapC, synthesized by SynPep Corp]”, the “effect of peptide on bilayer stability” value [1] is reported as “do not destabilize the bilayer morphology”, the “effect of peptide on ULV size and size distribution” value [1] is reported as “does not appear to modify ULV size or their size distribution” and the “effect of peptide on membrane thickness” value [1] is reported as “small decreases to the membrane thickness”. The “inhibition of SapC induced membrane fusion” value [2] was “can inhibit SapC induced membrane fusion” and the “effect … of lipid membranes” value [3] was “neither H1 nor H2 alone have significant influence on membrane structure”.

B1: SapC: human Saposin C, over expressed in E. coli as His-tag protein, HPLC purified (protein)
chain: SDVYCEVCEFLVKEVTKLIDNNKTEKEILDAFDKMCSKLPKSLSEECQEVVDTYGSSILSILLEEVSPELVCSMLHLCSG
modifications: His-tag
notes: human Saposin C, over expressed in E. coli as His-tag protein, HPLC purified
In the case of B1, the “effect of SapC on ULV” value ([1]; SapC 6.25 μM, [lipid]/[SapC]=220/1) is given as “ULV structure is unperturbed; also recorded: do not appear to perturb the size of ULV or their membrane structure”, the “effect of SapC on ULV” value ([1]; SapC 62.5 μM, [lipid]/[SapC]=22/1, acetate D2O buffer) is given as “promotes aggregation of ULV” and the “effect … of lipid membranes” value [3] is given as “can destabilize and restructure the acidic membrane”.
